This note sets out measurements from article PMC2910040.

Data set [1] addresses T1, BLMHM (BLM helicase module) (Homo sapiens, UniProt P54132 642-1290). In words: stopped-flow mdADP fluorescence amplitude titration.
Data set [2] addresses T1, BLMHM (BLM helicase module). In words: HEX fluorescence change.
The target is the same in data set [3]. In words: stopped-flow mdADP fluorescence amplitude titration. The source holds these as a separate data set.
Data set [4] shares this target. In words: fluorescence titration.
For data set [5] the target is unchanged. In words: stopped-flow mdADP fluorescence amplitude titration. This is another data set of the same source.

T1 sequence (P54132 642-1290): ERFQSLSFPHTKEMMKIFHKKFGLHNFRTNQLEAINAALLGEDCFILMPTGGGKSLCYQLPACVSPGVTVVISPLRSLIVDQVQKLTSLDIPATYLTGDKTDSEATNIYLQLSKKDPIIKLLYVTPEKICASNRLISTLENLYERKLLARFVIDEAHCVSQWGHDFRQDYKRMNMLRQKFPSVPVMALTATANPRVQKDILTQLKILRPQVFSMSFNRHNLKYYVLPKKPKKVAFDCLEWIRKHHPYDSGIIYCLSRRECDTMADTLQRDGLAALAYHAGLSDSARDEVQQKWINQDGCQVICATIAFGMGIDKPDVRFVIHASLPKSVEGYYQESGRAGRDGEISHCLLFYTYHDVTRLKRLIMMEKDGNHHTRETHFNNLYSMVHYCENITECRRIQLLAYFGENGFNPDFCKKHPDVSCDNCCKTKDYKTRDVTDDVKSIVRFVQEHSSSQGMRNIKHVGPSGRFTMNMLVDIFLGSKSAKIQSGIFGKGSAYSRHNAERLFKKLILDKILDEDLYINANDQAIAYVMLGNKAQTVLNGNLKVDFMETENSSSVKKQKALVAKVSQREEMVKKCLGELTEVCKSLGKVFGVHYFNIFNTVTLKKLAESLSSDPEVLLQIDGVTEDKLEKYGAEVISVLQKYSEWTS

B1: dT36 (ssDNA)
DNA: TTTTTTTTTTTTTTTTTTTTTTTTTTTTTTTTTTTT
B1 yielded a Kd in data set [1] of less than 0.1 µM.

B2: 5'-HEX-dT20 (ssDNA)
DNA: TTTTTTTTTTTTTTTTTTTT
For the molecule B2, in data set [2], the binding result is recorded as “binds”.

B3: dT54 (ssDNA)
DNA: TTTTTTTTTTTTTTTTTTTTTTTTTTTTTTTTTTTTTTTTTTTTTTTTTTTTTT
Consider B3, for which the Kd in data set [3] is less than 0.1 µM.

B4: DNA_2 (5'-HEX-DNA_54mer) (ssDNA)
DNA: CGTTGCGCAATTAAGCTCTAAGCCATCCGCAAAAATGACCTCTTATCAAAAGGA
For B4, the affinity in data set [4], expressed as Kd, was 0.1 ± 0.02 µM.

B5: dT18 (ssDNA)
DNA: TTTTTTTTTTTTTTTTTT
Consider B5, for which, in data set [5], the Kd is less than 0.1 µM.
